Assay [1] addresses Hyphochytrium catenoides kalium channelrhodopsin 1 (HcKCR1) (Hyphochytrium catenoides). In words: cryo-EM structure.
Assay [2] has as its target Hyphochytrium catenoides kalium channelrhodopsin 2 (HcKCR2) (Hyphochytrium catenoides). In words: cryo-EM structure.

“Hyphochytrium catenoides kalium channelrhodopsin 1 (HcKCR1) (natural protein)” had a stoichiometry N in assay [1] of 3.

In assay [2], “Hyphochytrium catenoides kalium channelrhodopsin 2 (HcKCR2) (natural protein)” came in with a stoichiometry N of 3.

The values above are taken from article doi:10.1101/2022.11.09.515798.
